One data set concerns the target T1, Trm10 (Saccharomyces cerevisiae, UniProt Q12400).
T1 construct: full-length, N-terminal 6xHis tag, plasmid pJEJ12-3, expressed in E. coli BL21(DE3) pLysS; monomer (printed PDB 4JWJ covers the C-terminal domain only)
T1 sequence (Q12400 1-293): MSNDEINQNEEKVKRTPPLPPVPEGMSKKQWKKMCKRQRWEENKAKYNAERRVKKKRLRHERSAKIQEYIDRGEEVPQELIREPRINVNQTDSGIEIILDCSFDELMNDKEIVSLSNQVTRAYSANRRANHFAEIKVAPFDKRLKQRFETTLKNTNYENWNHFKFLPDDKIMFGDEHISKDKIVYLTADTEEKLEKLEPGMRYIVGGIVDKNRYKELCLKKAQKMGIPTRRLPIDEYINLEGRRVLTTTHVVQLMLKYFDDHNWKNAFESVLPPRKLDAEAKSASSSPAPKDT
Kind of data set: electrospray mass spectrometry of RNase T1 fragments (+[…] Da adduct). The note with it: cosubstrate with tRNA-Gly-GCC; 1 h, 37 °C; covalent to tRNA G9, not to the enzyme. Type of data set: biochemical.

Data set [1] concerns Trm10-KRR (Saccharomyces cerevisiae). Put plainly: fluorescence anisotropy. The note with it: unmodified transcript, FA: 15 nM labeled tRNA, 50-300 nM enzyme, 30 min at room temperature, buffer as in ref 17 (not given), EMSA: 4 uM tRNA, 0-10 uM protein, 30 C 30 min. A general note: Polarisation of emitted light reports the rotation of a fluorescent probe.
The test system of data set [2] is Trm10 (wild type) (Saccharomyces cerevisiae). Kind of data set: fluorescence anisotropy. The conditions noted are these: unmodified transcript, FA: 15 nM labeled tRNA, 50-300 nM enzyme, 30 min at room temperature, buffer as in ref 17 (not given), EMSA: 4 uM tRNA, 0-10 uM protein, 30 C 30 min.

Broadly, the Kd is the constant that tells how readily two partners part at equilibrium.

Where a name gives a salt, the structure may show the parent alone.

Consider `Nc1ncnc2c1ncn2[C@@H]1O[C@H](CN(CCI)CC[C@H](N)C(=O)O)[C@@H](O)[C@H]1O` [NM6, 5′-(diaminobutyric acid)-N-iodoethyl-5′-deoxyadenosine ammoniumhydrochloride], for which, on Trm10, the “electrospray mass spectrometry of RNase T1 fragments (+393 Da adduct)” value was “NM6 was confirmed to be a suitable cosubstrate for tRNA modification by Trm10 using mass spectrometry”. With tRNAGly-GCC, 5'-fluorescein transcript, the Kd in data set [1] was determined as 34 nM; in data set [2] (separate data set, differs from Fig 4C), 100 nM; in data set [2] it was 20 nM. Take tRNALeu-CAA, FA transcript: the dissociation constant (Kd) in data set [2] came to 38 nM. Still for that read-out and setting: the figure for tRNAVal-UAC, FA transcript is 96 nM.

For the origin of these results see publication PMC10704376, “tRNA m^1G9 modification depends on substrate-specific RNA conformational changes induced by the methyltransferase Trm10” (The Journal of Biological Chemistry, 2023).
